Laboratory results from patent US20230310432A1 (JULIUS-MAXIMILIANS-UNIVERSITÄT WÜRZBURG, priority 2017, published 2023).
Blank lines part the entries; values can stand above or below the molecule they belong to.

What was measured:
[1] = system: CD8+ T cells expressing a ROR1 CAR with 4-1BB costimulatory domain; assay: IFN-γ ELISA, co-culture with RCH-ACV; format: cell-based, human; settings: […] nilotinib; 20 h; 1310 pg/ml by untreated CAR-T cells
[2] = system: CD8+ T cells expressing a CD19 CAR with 4-1BB costimulation; assay: Bioluminescence-based cytotoxicity assay, K562/CD19 target cells; format: cell-based, human
Procedure: Cytotoxicity: Target cells were stably transduced with ffluc_GFP and incubated in triplicate wells at 1×10^4 cells/well with effector T cells at an effector to target (E:T) ratio of 5:1. D-luciferin substrate (Biosynth, Staad, Switzerland) was added to the co-culture to a final concentration of 0.15 mg/ml and the decrease in luminescence signal in wells that contained target cells and T-cells was measured using a luminometer (Tecan, Mannedorf, Switzerland). Specific lysis was calculated using the standard formula.
The inventors prepared CD8+ CAR-T cell lines from n=3 healthy donors. In each of the T-cell lines, the inventors enriched CAR-expressing T cells to >90% purity using the EGFRt-transduction marker. The inventors analyzed cytolytic activity of CD8^+ CAR-T cells in a bioluminescence-based cytotoxicity assay using K562 that the inventors had transduced with either CD19 (for testing CD19 CAR-T cells) or ROR1 (for testing ROR1 CAR-T cells) as target cells. Dasatinib was added to the assay medium at the beginning of the assay.
The inventors prepared CD8^+ CAR-T cell lines from n=3 healthy donors. In each of the T-cell lines, the inventors enriched CAR-expressing T cells to >90% purity using the EGFRt-transduction marker. The inventors analyzed cytolytic activity of CD8^+ CAR-T cells in a bioluminescence-based cytotoxicity assay using K562 target cells that the inventors had transduced with CD19.
The CAR-T cell cytolytic activity was analyzed at 1-hour intervals for 10 hours.
The inventors analyzed cytolytic activity of CD8+ CAR-T cells in a bioluminescence-based cytotoxicity assay.
The inventors prepared CD8^+ CD19 CAR-T cell lines with a 4-1BB costimulatory domain from one healthy donor. In the T-cell line, the inventors enriched CAR expressing T cells to >90% purity using the EGFRt-transduction marker. The inventors analyzed cytolytic activity of CD8^+ CAR-T cells in a 4-hour bioluminescence-based cytotoxicity assay using K562 that the inventors had transduced with CD19 as target cells to assess the influence of a panel of Src-kinase inhibitors on the cytolytic function of CAR-T cells. Src-kinase inhibitors were added to the assay medium at the beginning of the assay over a 4-log concentration range.

[3] = system: CD8+ T cells expressing a CD19 CAR with 4-1BB costimulation; assay: Cytokine production and secretion (IFN-γ, IL-2 ELISA), co-culture with K562/CD19; format: cell-based, human; settings: any given concentration of dexamethasone; pre-treated or during assay only
[4] = system: CD8+ T cells expressing a CD19 CAR with 4-1BB costimulation; assay: CFSE proliferation assay, co-culture with K562/CD19; format: cell-based, human; settings: dexamethasone, any given concentration; 24 h-pretreatment or at start of co-culture; 72 h
[5] = system: CAR-T cells co-expressing the iCasp suicide gene; assay: Elimination of iCasp+ T cells; format: cell-based, human; settings: dimerizer (10 nM AP20187) without dasatinib; 24 hours
Procedure: After 24 hours, cells were labeled with anti-CD3 mAB and analyzed by flow cytometry for the presence of iCasp+ T cells.
After 24 hours, cells were labeled with anti-CD3 mAB and analyzed by flow cytometry for the presence of iCasp^+ T cells.

[6] = target: human SLAMF7 (human) (UniProt Q9NQ25); assay: cell-based or functional assay
[7] = target: human ROR1 (human) (UniProt Q01973); assay: cell-based or functional assay

Molecule: Cc1cn(-c2cc(NC(=O)c3ccc(C)c(Nc4nccc(-c5cccnc5)n4)c3)cc(C(F)(F)F)c2)cn1 [nilotinib]
- production and secretion of IFN-γ [1]: 480 pg/mL

Molecule: Cc1ccc(-c2nn(C(C)(C)C)c3ncnc(N)c23)cc1 [PP1-inhibitor]
- specific lysis of target cells ([2]; inhibitor 10 nM, 4-hour assay, 82% by untreated CAR-T cells): 62.4%

Molecule: C[C@@H]1C[C@H]2[C@@H]3CCC4=CC(=O)C=C[C@]4(C)[C@@]3(F)[C@@H](O)C[C@]2(C)[C@@]1(O)C(=O)CO [dexamethasone]
- specific lysis of target cells ([2]; dexamethasone added at the beginning of the assay, any of the applied dosages (0.1-100 μM), 91% non-treated): > 87%
- specific lysis of target cells ([2]; pre-treated for 24 h with dexamethasone, all tested doses, t=10 h, 91% non-treated): > 45%
- residual specific IFN-γ secretion compared to non-treated CAR-T cells [3]: more than 43%
- residual specific IL-2 secretion compared to non-treated CAR-T cells [3]: less than 17%
- remaining proliferation compared to untreated CAR-T cells [4]: less than 26%

Molecule: CC[C@H](C(=O)N1CCCC[C@H]1C(=O)O[C@H](CCc1ccc(OC)c(OC)c1)c1cccc(OCC(=O)NCC(CNC(=O)COc2cccc([C@@H](CCc3ccc(OC)c(OC)c3)OC(=O)[C@@H]3CCCCN3C(=O)[C@@H](CC)c3cc(OC)c(OC)c(OC)c3)c2)CN(C)C)c1)c1cc(OC)c(OC)c(OC)c1 [dimerizer, AP20187]
- percentage of iCasp+ cells [5]: 45%

- specific lysis of K562/SLAMF7 target cells by CD8+ CAR-T cells without dasatinib, t=6 h [6]: 67%
- specific lysis of K562/SLAMF7 target cells by CD8+ CAR-T cells without dasatinib, t=12 h [6]: 85%
B1: SLAMF7 CAR with CD28 costimulatory domain (receptor)
chain: EVQLVESGGGLVQPGGSLRLSCAASGFDFSRYWMSWVRQAPGKGLEWIGEINPDSSTINYAPSLKDKFIISRDNAKNSLYLQMNSLRAEDTAVYYCARPDGNYWYFDVWGQGTLVTVSSGGGGSGGGGSGGGGSDIQMTQSPSSLSASVGDRVTITCKASQDVGIAVAWYQQKPGKVPKLLIYWASTRHTGVPDRFSGSGSGTDFTLTISSLQPEDVATYYCQQYSSYPYTFGQGTKVEIKESKYGPPCPPCPAPPVAGPSVFLFPPKPKDTLMISRTPEVTCVVVDVSQEDPEVQFNWYVDGVEVHNAKTKPREEQFQSTYRVVSVLTVLHQDWLNGKEYKCKVSNKGLPSSIEKTISKAKGQPREPQVYTLPPSQEEMTKNQVSLTCLVKGFYPSDIAVEWESNGQPENNYKTTPPVLDSDGSFFLYSRLTVDKSRWQEGNVFSCSVMHEALHNHYTQKSLSLSLGKMFWVLVVVGGVLACYSLLVTVAFIIFWVRSKRSRGGHSDYMNMTPRRPGPTRKHYQPYAPPRDFAAYRSRVKFSRSADAPAYQQGQNQLYNELNLGRREEYDVLDKRRGRDPEMGGKPRRKNPQEGLYNELQKDKMAEAYSEIGMKGERRRGKGHDGLYQGLSTATKDTYDALHMQALPPR

- IFN-γ in supernatant (ELISA) of co-culture with RCH-ACV target cells, untreated CD8+ CAR-T cells [7]: 1310 pg/mL
- proliferation index (CFSE) after 72 h co-culture with RCH-ACV, untreated CD8+ CAR-T cells [7]: 2.84
- specific lysis of K562/ROR1 target cells by CD8+ CAR-T cells without dasatinib, t=10 h [7]: 94%
- specific lysis of K562/ROR1 target cells by CD8+ CAR-T cells without dasatinib, up to t=5 h [7]: 73%
- specific lysis of RCH-ACV target cells by untreated CD8+ CAR-T cells, t=8 hours [7]: > 90%
B2: ROR1 CAR with 4-1BB costimulatory domain (receptor)
chain: QVQLVESGGALVQPGGSLTLSCKASGFDFSAYYMSWVRQAPGKGLEWIATIYPSSGKTYYAASVQGRFTISADNAKNTVYLQMNSLTAADTATYFCARDSYADDGALFNIWGQGTLVTVSSGGGGSGGGGSGGGGSQLVLTQSPSVSAALGSSAKITCTLSSAHKTDTIDWYQQLAGQAPRYLMYVQSDGSYEKRSGVPDRFSGSSSGADRYLIISSVQADDEADYYCGADYIGGYVFGGGTQLTVGESKYGPPCPPCPMFWVLVVVGGVLACYSLLVTVAFIIFWVKRGRKKLLYIFKQPFMRPVQTTQEEDGCSCRFPEEEEGGCELRVKFSRSADAPAYQQGQNQLYNELNLGRREEYDVLDKRRGRDPEMGGKPRRKNPQEGLYNELQKDKMAEAYSEIGMKGERRRGKGHDGLYQGLSTATKDTYDALHMQALPPR

- specific lysis of K562/SLAMF7 target cells by CD8+ CAR-T cells without dasatinib, t=6 h [6]: 63%
- specific lysis of K562/SLAMF7 target cells by CD8+ CAR-T cells without dasatinib, t=12 h [6]: 83%
B3: SLAMF7 CAR with 4-1BB costimulatory domain (receptor)
chain: EVQLVESGGGLVQPGGSLRLSCAASGFDFSRYWMSWVRQAPGKGLEWIGEINPDSSTINYAPSLKDKFIISRDNAKNSLYLQMNSLRAEDTAVYYCARPDGNYWYFDVWGQGTLVTVSSGGGGSGGGGSGGGGSDIQMTQSPSSLSASVGDRVTITCKASQDVGIAVAWYQQKPGKVPKLLIYWASTRHTGVPDRFSGSGSGTDFTLTISSLQPEDVATYYCQQYSSYPYTFGQGTKVEIKESKYGPPCPPCPAPPVAGPSVFLFPPKPKDTLMISRTPEVTCVVVDVSQEDPEVQFNWYVDGVEVHNAKTKPREEQFQSTYRVVSVLTVLHQDWLNGKEYKCKVSNKGLPSSIEKTISKAKGQPREPQVYTLPPSQEEMTKNQVSLTCLVKGFYPSDIAVEWESNGQPENNYKTTPPVLDSDGSFFLYSRLTVDKSRWQEGNVFSCSVMHEALHNHYTQKSLSLSLGKMFWVLVVVGGVLACYSLLVTVAFIIFWVKRGRKKLLYIFKQPFMRPVQTTQEEDGCSCRFPEEEEGGCELRVKFSRSADAPAYQQGQNQLYNELNLGRREEYDVLDKRRGRDPEMGGKPRRKNPQEGLYNELQKDKMAEAYSEIGMKGERRRGKGHDGLYQGLSTATKDTYDALHMQALPPR
